Reference: the supplement of paper PMC10567573

B1: CLCN6 (parent)
chain: TGLVGLFVDFFVRLFTQLKFGVVQ
B2: ZNF8 (parent)
chain: RIHTGERPYMCKECGKAFSQNSSL

Variants of: B1
Assay: protein stability index of a GFP-peptide fusion (GPS, HEK-293T) (PSI 1-6); higher = more stable
Settings: c terminus: a fixed tail appended
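Note: lentivirally expressed fusions sorted by FACS into six bins by GFP to DsRed ratio, PSI derived from sequencing read proportions per bin multiplied by bin number.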

Variant	protein stability index
TDLVGLFVDFFVRLFTQLKFGVVQ [G2D]	1.64
TFLVGLFVDFFVRLFTQLKFGVVQ [G2F]	3.79
TELVGLFVDFFVRLFTQLKFGVVQ [G2E]	1.67
THLVGLFVDFFVRLFTQLKFGVVQ [G2H]	2.34
TILVGLFVDFFVRLFTQLKFGVVQ [G2I]	2.36
TCLVGLFVDFFVRLFTQLKFGVVQ [G2C]	2.77
TKLVGLFVDFFVRLFTQLKFGVVQ [G2K]	2.53
GGLVGLFVDFFVRLFTQLKFGVVQ [T1G]	2.12
FGLVGLFVDFFVRLFTQLKFGVVQ [T1F]	2.1
WGLVGLFVDFFVRLFTQLKFGVVQ [T1W]	1.73
YGLVGLFVDFFVRLFTQLKFGVVQ [T1Y]	2.82
IGLVGLFVDFFVRLFTQLKFGVVQ [T1I]	1.56
RGLVGLFVDFFVRLFTQLKFGVVQ [T1R]	3.29
PGLVGLFVDFFVRLFTQLKFGVVQ [T1P]	2.59
AGLVGLFVDFFVRLFTQLKFGVVQ [T1A]	1.84
NGLVGLFVDFFVRLFTQLKFGVVQ [T1N]	1.8
MGLVGLFVDFFVRLFTQLKFGVVQ [T1M]	1.99
CGLVGLFVDFFVRLFTQLKFGVVQ [T1C]	2.14
VGLVGLFVDFFVRLFTQLKFGVVQ [T1V]	1.7
QGLVGLFVDFFVRLFTQLKFGVVQ [T1Q]	2.17
HGLVGLFVDFFVRLFTQLKFGVVQ [T1H]	2.01
EGLVGLFVDFFVRLFTQLKFGVVQ [T1E]	1.92
SGLVGLFVDFFVRLFTQLKFGVVQ [T1S]	2.6
DGLVGLFVDFFVRLFTQLKFGVVQ [T1D]	2.39
LGLVGLFVDFFVRLFTQLKFGVVQ [T1L]	1.68
KGLVGLFVDFFVRLFTQLKFGVVQ [T1K]	2.83

Variants of: B2
Assay: as above
Settings: c terminus: a fixed tail appended

Variant	protein stability index
RIHTGERPYMCKECGKAFSQNSSV [L24V]	2.6
RIHTGERPYMCKECGKAFSQNSSQ [L24Q]	3.21
RIHTGERPYMCKECGKAFSQNSSR [L24R]	2.55
RIHTGERPYMCKECGKAFSQNSSE [L24E]	3.68
RIHTGERPYMCKECGKAFSQNSSK [L24K]	3.29
RIHTGERPYMCKECGKAFSQNSSH [L24H]	3.02
RIHTGERPYMCKECGKAFSQNSSN [L24N]	3.37
RIHTGERPYMCKECGKAFSQNSSC [L24C]	3.17
RIHTGERPYMCKECGKAFSQNSSP [L24P]	3.18
RIHTGERPYMCKECGKAFSQNSSI [L24I]	2.74
RIHTGERPYMCKECGKAFSQNSST [L24T]	3.43
RIHTGERPYMCKECGKAFSQNSSW [L24W]	2.73
RIHTGERPYMCKECGKAFSQNSSM [L24M]	2.7
RIHTGERPYMCKECGKAFSQNSSF [L24F]	2.48
RIHTGERPYMCKECGKAFSQNSSS [L24S]	3.55
RIHTGERPYMCKECGKAFSQNSSY [L24Y]	2.18
RIHTGERPYMCKECGKAFSQNSSG [L24G]	2.8
RIHTGERPYMCKECGKAFSQNSSA [L24A]	2.99
RIHTGERPYMCKECGKAFSQNSSD [L24D]	3.56
RIHTGERPYMCKECGKAFSQNSHL [S23H]	2.9
RIHTGERPYMCKECGKAFSQNSGL [S23G]	2.3
RIHTGERPYMCKECGKAFSQNSYL [S23Y]	2.03
RIHTGERPYMCKECGKAFSQNSTL [S23T]	2.27
RIHTGERPYMCKECGKAFSQNSQL [S23Q]	2.58

Variant	protein stability index
RIHTGERPYMCKECGKAFSQNSAL [S23A]	2.26
RIHTGERPYMCKECGKAFSQNSIL [S23I]	2.02
RIHTGERPYMCKECGKAFSQNSCL [S23C]	2.75
RIHTGERPYMCKECGKAFSQNSKL [S23K]	3.26
RIHTGERPYMCKECGKAFSQNSPL [S23P]	2.48
RIHTGERPYMCKECGKAFSQNSDL [S23D]	2.8
RIHTGERPYMCKECGKAFSQNSEL [S23E]	2.88
RIHTGERPYMCKECGKAFSQNSML [S23M]	1.98
RIHTGERPYMCKECGKAFSQNSFL [S23F]	1.77
RIHTGERPYMCKECGKAFSQNSVL [S23V]	2.24
RIHTGERPYMCKECGKAFSQNSLL [S23L]	1.77
RIHTGERPYMCKECGKAFSQNSNL [S23N]	2.44
RIHTGERPYMCKECGKAFSQNSRL [S23R]	1.66
RIHTGERPYMCKECGKAFSQNSWL [S23W]	1.94
RIHTGERPYMCKECGKAFYQNSSL [S19Y]	2.18
RIHTGERPYMCKECGKAFCQNSSL [S19C]	3.28
RIHTGERPYMCKECGKAFMQNSSL [S19M]	2.24
RIHTGERPYMCKECGKAFAQNSSL [S19A]	2.66
RIHTGERPYMCKECGKAFIQNSSL [S19I]	2.01
RIHTGERPYMCKECGKAFVQNSSL [S19V]	2
RIHTGERPYMCKECGKAFPQNSSL [S19P]	1.81
RIHTGERPYMCKECGKAFLQNSSL [S19L]	3.17
RIHTGERPYMCKECGKAFQQNSSL [S19Q]	2.77
RIHTGERPYMCKECGKAFTQNSSL [S19T]	2.35

Variant	protein stability index
RIHTGERPYMCKECGKAFEQNSSL [S19E]	3.26
RIHTGERPYMCKECGKAFHQNSSL [S19H]	2.8
RIHTGERPYMCKECGKAFFQNSSL [S19F]	2.02
RIHTGERPYMCKECGKAFNQNSSL [S19N]	2.31
RIHTGERPYMCKECGKAFKQNSSL [S19K]	2.27
RIHTGERPYMCKECGKAFGQNSSL [S19G]	2.6
RIHTGERPYMCKECGKAFDQNSSL [S19D]	3.09
RIHTGERPYMCKECGKAFWQNSSL [S19W]	1.47
RIHTGERPYMCKECGKAFRQNSSL [S19R]	1.91
RIHTGERPYMCKECGSAFSQNSSL [K16S]	2.05
RIHTGERPYMCKECGMAFSQNSSL [K16M]	2.63
RIHTGERPYMCKECGRAFSQNSSL [K16R]	2.3
RIHTGERPYMCKECGVAFSQNSSL [K16V]	1.71
RIHTGERPYMCKECGTAFSQNSSL [K16T]	2.73
RIHTGERPYMCKECGWAFSQNSSL [K16W]	2.66
RIHTGERPYMCKECGNAFSQNSSL [K16N]	1.8
RIHTGERPYMCKECGQAFSQNSSL [K16Q]	2.27
RIHTGERPYMCKECGYAFSQNSSL [K16Y]	1.61
RIHTGERPYMCKECGPAFSQNSSL [K16P]	2.06
RIHTGERPYMCKECGKDFSQNSSL [A17D]	2.84
RIHTGERPYMCKECGKKFSQNSSL [A17K]	3
RIHTGERPYMCKECGKCFSQNSSL [A17C]	2.46
RIHTGERPYMCKECGKHFSQNSSL [A17H]	2.42
RIHTGERPYMCKECGKWFSQNSSL [A17W]	2.65

Variant	protein stability index
RIHTGERPYMCKECGKVFSQNSSL [A17V]	3.24
RIHTGERPYMCKECGKPFSQNSSL [A17P]	2.09
RIHTGERPYMCKECGKYFSQNSSL [A17Y]	2.37
RIHTGERPYMCKECGKGFSQNSSL [A17G]	2.42
RIHTGERPYMCKECGKQFSQNSSL [A17Q]	3.01
RIHTGERPYMCKECGKSFSQNSSL [A17S]	2.94
RIHTGERPYMCKECGKIFSQNSSL [A17I]	2.41
RIHTGERPYMCKECGKTFSQNSSL [A17T]	3.29
RIHTGERPYMCKECGKEFSQNSSL [A17E]	2.95
RIHTGERPYMCKECGKFFSQNSSL [A17F]	2.42
RIHTGERPYMCKECGKMFSQNSSL [A17M]	2.67
RIHTGERPYMCKECGKNFSQNSSL [A17N]	2.99
RIHTGERPYMCKECGKRFSQNSSL [A17R]	3.04
RIHTGERPYMCKECGKLFSQNSSL [A17L]	2.47
RIHTGERPYMCKECGKAMSQNSSL [F18M]	2.76
RIHTGERPYMCKECGKAGSQNSSL [F18G]	3.35
RIHTGERPYMCKECGKAKSQNSSL [F18K]	3.29
RIHTGERPYMCKECGKALSQNSSL [F18L]	2.44
RIHTGERPYMCKECGKARSQNSSL [F18R]	3.25
RIHTGERPYMCKECGKAQSQNSSL [F18Q]	2.79
RIHTGERPYMCKECGKAWSQNSSL [F18W]	1.99
RIHTGERPYMCKECGKATSQNSSL [F18T]	2.85
RIHTGERPYMCKECGKAHSQNSSL [F18H]	3.59
RIHTGERPYMCKECGKANSQNSSL [F18N]	3.83

Variant	protein stability index
RIHTGERPYMCKECGKAASQNSSL [F18A]	2.93
RIHTGERPYMCKECGKADSQNSSL [F18D]	3.84
RIHTGERPYMCKECGKACSQNSSL [F18C]	3.03
RIHTGERPYMCKECGKAPSQNSSL [F18P]	3.45
RIHTGERPYMCKECGKAISQNSSL [F18I]	2.53
RIHTGERPYMCKECGKAVSQNSSL [F18V]	2.83
RIHTGERPYMCKECGKASSQNSSL [F18S]	3.57
RIHTGERPYMCKECGKAESQNSSL [F18E]	3.64
RIHTGERPYMCKECGKAYSQNSSL [F18Y]	2.39
RIHTGERPYMCKECGKAFSANSSL [Q20A]	2.65
RIHTGERPYMCKECGKAFSPNSSL [Q20P]	2.74
RIHTGERPYMCKECGKAFSHNSSL [Q20H]	2.49
RIHTGERPYMCKECGKAFSYNSSL [Q20Y]	2.06
RIHTGERPYMCKECGKAFSMNSSL [Q20M]	2.21
RIHTGERPYMCKECGKAFSNNSSL [Q20N]	2.72
RIHTGERPYMCKECGKAFSKNSSL [Q20K]	2.94
RIHTGERPYMCKECGKAFSLNSSL [Q20L]	2.1
RIHTGERPYMCKECGKAFSSNSSL [Q20S]	2.2
RIHTGERPYMCKECGKAFSFNSSL [Q20F]	1.83
RIHTGERPYMCKECGKAFSCNSSL [Q20C]	2.54
RIHTGERPYMCKECGKAFSINSSL [Q20I]	2.4
RIHTGERPYMCKECGKAFSVNSSL [Q20V]	1.79
RIHTGERPYMCKECGKAFSTNSSL [Q20T]	2.61
RIHTGERPYMCKECGKAFSGNSSL [Q20G]	2.83

Variant	protein stability index
RIHTGERPYMCKECGKAFSENSSL [Q20E]	3.19
RIHTGERPYMCKECGKAFSWNSSL [Q20W]	2.5
RIHTGERPYMCKECGKAFSDNSSL [Q20D]	2.37
RIHTGERPYMCKECGKAFSRNSSL [Q20R]	2.54
RIHTGERPYMCKECGKAFSQNVSL [S22V]	1.9
RIHTGERPYMCKECGKAFSQNKSL [S22K]	2.4
RIHTGERPYMCKECGKAFSQNRSL [S22R]	2.19
RIHTGERPYMCKECGKAFSQNGSL [S22G]	2.68
RIHTGERPYMCKECGKAFSQNHSL [S22H]	2
RIHTGERPYMCKECGKAFSQNISL [S22I]	1.91
RIHTGERPYMCKECGKAFSQNMSL [S22M]	2.22
RIHTGERPYMCKECGKAFSQNASL [S22A]	2.49
RIHTGERPYMCKECGKAFSQNFSL [S22F]	1.89
RIHTGERPYMCKECGKAFSQNYSL [S22Y]	1.8
RIHTGERPYMCKECGKAFSQNQSL [S22Q]	2.58
RIHTGERPYMCKECGKAFSQNTSL [S22T]	2.34
RIHTGERPYMCKECGKAFSQNCSL [S22C]	3.07
RIHTGERPYMCKECGKAFSQNLSL [S22L]	2.05
RIHTGERPYMCKECGKAFSQNESL [S22E]	1.98
RIHTGERPYMCKECGKAFSQNDSL [S22D]	2.4
RIHTGERPYMCKECGKAFSQNWSL [S22W]	2.22
RIHTGERPYMCKECGKAFSQNPSL [S22P]	2.6
RIHTGERPYMCKECGKAFSQNNSL [S22N]	2.37
RIHTGERPYMCKECGKAFSQCSSL [N21C]	2.46

Variant	protein stability index
RIHTGERPYMCKECGKAFSQFSSL [N21F]	1.8
RIHTGERPYMCKECGKAFSQTSSL [N21T]	2.66
RIHTGERPYMCKECGKAFSQQSSL [N21Q]	2.48
RIHTGERPYMCKECGKAFSQPSSL [N21P]	2.44
RIHTGERPYMCKECGKAFSQGSSL [N21G]	2.71
RIHTGERPYMCKECGKAFSQHSSL [N21H]	2.4
RIHTGERPYMCKECGKAFSQRSSL [N21R]	2.26
RIHTGERPYMCKECGKAFSQSSSL [N21S]	2.59
RIHTGERPYMCKECGKAFSQWSSL [N21W]	1.7
RIHTGERPYMCKECGKAFSQESSL [N21E]	2.65
RIHTGERPYMCKECGKAFSQASSL [N21A]	1.94
RIHTGERPYMCKECGKAFSQMSSL [N21M]	2.17
RIHTGERPYMCKECGKAFSQLSSL [N21L]	1.86
RIHTGERPYMCKECGKAFSQYSSL [N21Y]	1.5
RIHTGERPYMCKECGKAFSQDSSL [N21D]	3.08
RIHTGERPYMCKECGKAFSQVSSL [N21V]	1.4
RIHTGERPYMCKECGKAFSQKSSL [N21K]	2.75
RIHTGERPYMCKECGKAFSQISSL [N21I]	2.04
